According to US20260049160A1 (Hoffmann-La Roche, published 2026):
Positions count from the first letter of the chain named. Each block holds one binder with its values, some of them ahead of it.

Columns and labels:
[1] = molecular target: T1, biotinylated PD1-ECD-AviHis (human, UniProt Q15116 25-170, biotinylated (Avi tag)); test: ELISA, biotinylated PD1-ECD-AviHis on streptavidin plates
T1 construct: extracellular domain; also called huPD1; hu PD1; not shown: Avi and His tags

[2] = molecular target: T2, biotinylated Tim3-ECD-AviHis (human, UniProt Q8TDQ0 22-202, biotinylated (Avi tag)); test: ELISA on biotinylated Tim3-ECD-AviHis
T2 construct: extracellular domain; also called huTIM3; hu Tim3; not shown: Avi and His tags

[3] = molecular target: T3, human Tim3-ECD (human, UniProt Q8TDQ0 22-202); test: SPR (Biacore T200), antibody captured via anti-human Fab IgG, human Tim3-ECD in solution, 1:1 Langmuir
T3 construct: extracellular domain; Analyte of the Biacore assay; also called hu Tim3-ECD
Method: (§1) The sample and running buffer was HBS-EP+ (0.01 M HEPES, 0.15 M NaCl, 3 mM EDTA, 0.05% v/v Surfactant P20, pH 7.4). Flow cell temperature was set to 25° C. and sample compartment temperature to 12° C. The system was primed with running buffer.
(§2) Different samples were injected for 30 seconds with a concentration of 10 nM and bound consecutively to the flow cells 2, 3 and 4. […] Finally the double referenced data was fitted to a 1:1 langmuir interaction model with the Biacore™ T200 Evaluation Software.

[4] = molecular target: T2, biotinylated Tim3-ECD-AviHis; test: ELISA, biotinylated Tim3-ECD-AviHis on streptavidin plates
[5] = molecular target: T4, human PD1-ECD (human, UniProt Q15116 25-170); test: SPR (Biacore T200), antibody captured via anti-human Fc IgG, human PD1-ECD in solution, 1:1 Langmuir
T4 construct: extracellular domain; Analyte of the Biacore assay; also called hu PD1-ECD
Method: Different samples were injected for 15 seconds with a concentration of 10 nM and consecutively bound to the flow cells 2, 3 and 4. […] Finally the double referenced data was fitted to a 1:1 langmuir interaction model with the Biacore™ T200 Evaluation Software.

[6] = molecular target: T3, human Tim3-ECD; test: SPR (Biacore T200), antibody captured via anti-human Fab IgG, human Tim3-ECD in solution, 1:1 Langmuir; 2 + 2 bispecific format, Tim3-arm
Method: as §1, §2

[7] = molecular target: T5, human FAP (human, UniProt Q12884 26-760); test: SPR (Biacore), antibody captured via anti-human IgG Fc, 5 ug/ml human FAP injected alone for 180 s
T5 construct: also called hFAP
T5 sequence (Q12884 26-760 limits assumed): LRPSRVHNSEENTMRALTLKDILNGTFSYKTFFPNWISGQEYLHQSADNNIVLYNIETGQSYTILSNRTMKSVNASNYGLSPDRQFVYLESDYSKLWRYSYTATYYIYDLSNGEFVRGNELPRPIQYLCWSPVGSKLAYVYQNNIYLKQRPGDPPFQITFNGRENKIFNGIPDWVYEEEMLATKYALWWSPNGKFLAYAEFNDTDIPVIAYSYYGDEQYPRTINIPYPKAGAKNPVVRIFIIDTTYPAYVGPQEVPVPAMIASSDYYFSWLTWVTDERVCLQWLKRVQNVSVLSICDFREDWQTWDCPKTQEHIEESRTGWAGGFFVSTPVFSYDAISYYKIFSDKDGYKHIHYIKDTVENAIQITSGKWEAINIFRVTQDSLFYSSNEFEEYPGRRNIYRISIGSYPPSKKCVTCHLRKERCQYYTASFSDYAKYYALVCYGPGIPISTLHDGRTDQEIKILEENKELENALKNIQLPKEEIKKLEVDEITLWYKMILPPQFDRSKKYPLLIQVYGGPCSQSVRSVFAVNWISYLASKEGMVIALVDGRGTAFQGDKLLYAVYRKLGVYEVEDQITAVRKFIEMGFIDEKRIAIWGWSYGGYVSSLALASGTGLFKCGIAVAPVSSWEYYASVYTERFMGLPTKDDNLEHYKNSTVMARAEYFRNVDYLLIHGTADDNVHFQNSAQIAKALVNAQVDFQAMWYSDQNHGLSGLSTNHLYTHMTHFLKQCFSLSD
From the text: Therefore a <Fc> capturing IgG is immobilized on the chip surface and the different DR5TAA CrossMAbs is captured. In the experiment the targets DR5 and FAP were either added individually or simultaneously to the captured CrossMAb.

[8] = molecular target: T1, biotinylated PD1-ECD-AviHis; test: ELISA on biotinylated PD1-ECD-AviHis
Method: After washing (3×90 μl/well with PBST-buffer) 25 μl anti PD1 antibody samples were added in increasing concentrations and incubated 1h at RT. After washing (3×90 μl/well with PBST-buffer) 25 μl/well goat-anti-human H+L-POD (JIR, JIR109-036-098) was added in 1:5000 dilution and incubated at RT for 1 h on a shaker.

B5: DR5TAA-0082 (bispecific antibody, human IgG1, kappa, L234A L235A)
light 1: EIVLTQSPGTLSLSPGERATLSCRASQSVSSSYLAWYQQKPGQAPRLLIYGASSRATGIPDRFSGSGSGTDFTLTISRLEPEDFAVYYCQQGTTHPITFGQGTKVEIKRTVAAPSVFIFPPSDRKLKSGTASVVCLLNNFYPREAKVQWKVDNALQSGNSQESVTEQDSKDSTYSLSSTLTLSKADYEKHKVYACEVTHQGLSSPVTKSFNRGEC
heavy: not shown
light 2: EVQLLESGGGLVQPGGSLRLSCAASGFTFSSHAMSWVRQAPGKGLEWVSAIWASGEQYYADSVKGRFTISRDNSKNTLYLQMNSLRAEDTAVYYCAKGWLGNFDYWGQGTLVTVSSASVAAPSVFIFPPSDEELKSGTASVVCLLNNFYPREAKVQWKVDNALQSGNSQESVTEQDSKDSTYSLSSTLTLSKADYEKHKVYACEVTHQGLSSPVTKSFNRGEC
notes: Tetravalent 2+2, VH/VL crossover on FAP
- FAP signal [RU max] [7]: 7.4 RU

B8: DR5TAA-0083 (bispecific antibody, human IgG1, kappa, L234A L235A)
light 1: not shown
heavy: not shown
light 2: B5 light 1 with S31R, Y50I, S54T, T93Q, T94V, H95I, I97P
notes: Tetravalent 2+2, VH/VL crossover on DR5
- FAP signal [RU max] [7]: 18.5 RU

B9: Chimeric TIM3-0028 (antibody, V domains shown)
VH: EVQLQQSVAELVRPGASVKLSCTASGFNIKTTYMHWVKQRPEQGLEWIGRIDPADDNTKYAPKFQGKATITADTSSNTAYLQLSSLTSEDAAIYYCVRDFGYVAWFAYWGQGTLVTFSA
VL: NIVMTPTPKFLPVSSGDRVTMTCRASQSVDNYVAWYQQKPGQSPKLLIYYASNRYIGVPDRFTGSGSGTDFTFTISSVQVEDLAVYFCQQHYSSPYTFGSGTKLEIK
notes: Bivalent IgG; also called TIM3 IgG (bivalent); copies: 2 + 2
- binding result [8]: no binding

B10: Chimeric TIM3-0018 (antibody, V domains shown)
VH: QVTLKESGPGILQPSQTLSLTCSFSGFSLSTSGMSVGWIRQPSGKGLEWLAHIWLNDDVFFNPALKRRLTISKDTSNNQVFLQIASVVTADTATYYCVRANGYLYALDYWGQGISVTVSS
VL: QIVLTQSPAIMSASPGQKVTITCSASSSVNYTQWYQQKLGSSPKLWIYDAFKLAPGVPARFSGSGTGTSYSLTISSMEAEDAASYFCHQWSSYPWTFGGGTKLEIK
notes: as for B9
- binding result [8]: no binding
- EC50 [4]: 0.15 nM

The next lines start with the values.

- EC50 [1]: 0.12 nM
- binding result [2]: no binding
B1: Chimeric PD1-0103 (antibody, V domains shown)
VH: EVILVESGGGLVKPGGSLKLSCAASGFSFSSYTMSWVRQTPEKRLDWVATISGGGRDIYYPDSVKGRFTISRDNAKNTLYLEMSSLMSEDTALYYCVLLTGRVYFALDSWGQGTSVTVSS
VL: KIVLTQSPASLPVSLGQRATISCRASESVDTSDNSFIHWYQQRPGQSPKLLIYRSSTLESGVPARFSGSGSRTDFTLTIDPVEADDVATYYCQQNYDVPWTFGGGTKLEIK
notes: Bivalent IgG; also called PD1 IgG (bivalent); copies: 2 + 2

- Kd [3]: 0.3 nM
- EC50 [1]: 0.09 nM
- EC50 [4]: 0.11 nM
- Kd [5]: 1.9 nM
B2: 2 + 2 PD1TIM3_0359: chimeric PD1-0103/Tim3-0018 (bispecific antibody, human IgG1, kappa, L234A L235A)
heavy: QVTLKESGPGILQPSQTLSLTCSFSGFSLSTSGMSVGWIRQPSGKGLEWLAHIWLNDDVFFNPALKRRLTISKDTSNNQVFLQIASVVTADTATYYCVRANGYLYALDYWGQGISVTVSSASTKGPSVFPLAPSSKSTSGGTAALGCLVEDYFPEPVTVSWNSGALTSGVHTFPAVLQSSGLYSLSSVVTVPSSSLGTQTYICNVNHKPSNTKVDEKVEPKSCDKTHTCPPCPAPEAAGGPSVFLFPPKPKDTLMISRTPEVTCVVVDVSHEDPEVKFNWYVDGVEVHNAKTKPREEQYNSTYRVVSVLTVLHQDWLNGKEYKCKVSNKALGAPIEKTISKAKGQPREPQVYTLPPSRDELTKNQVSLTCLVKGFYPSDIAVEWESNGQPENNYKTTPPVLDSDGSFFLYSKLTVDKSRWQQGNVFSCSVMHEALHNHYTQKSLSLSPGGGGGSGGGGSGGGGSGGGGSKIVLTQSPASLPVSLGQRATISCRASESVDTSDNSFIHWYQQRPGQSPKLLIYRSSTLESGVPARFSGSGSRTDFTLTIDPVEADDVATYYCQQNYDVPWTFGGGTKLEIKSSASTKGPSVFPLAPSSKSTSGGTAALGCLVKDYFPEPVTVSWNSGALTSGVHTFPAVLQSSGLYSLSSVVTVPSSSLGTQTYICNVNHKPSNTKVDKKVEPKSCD
light 1: QIVLTQSPAIMSASPGQKVTITCSASSSVNYTQWYQQKLGSSPKLWIYDAFKLAPGVPARFSGSGTGTSYSLTISSMEAEDAASYFCHQWSSYPWTFGGGTKLEIKRTVAAPSVFIFPPSDRKLKSGTASVVCLLNNFYPREAKVQWKVDNALQSGNSQESVTEQDSKDSTYSLSSTLTLSKADYEKHKVYACEVTHQGLSSPVTKSFNRGEC
light 2: EVILVESGGGLVKPGGSLKLSCAASGFSFSSYTMSWVRQTPEKRLDWVATISGGGRDIYYPDSVKGRFTISRDNAKNTLYLEMSSLMSEDTALYYCVLLTGRVYFALDSWGQGTSVTVSSASVAAPSVFIFPPSDEQLKSGTASVVCLLNNFYPREAKVQWKVDNALQSGNSQESVTEQDSKDSTYSLSSTLTLSKADYEKHKVYACEVTHQGLSSPVTKSFNRGEC
notes: Tetravalent 2+2 CrossMAb VH-VL with charged substitutions in the CH1/CL interfaces; also called PD1TIM3-0359 (2 + 2)

- EC50 [1]: 0.08 nM
- Kd [6]: 2.2 nM
- EC50 [4]: 0.19 nM
B3: 2 + 2 PD1TIM3_0358: chimeric PD1-0103/Tim3-0028 (bispecific antibody, human IgG1, kappa, L234A L235A)
heavy: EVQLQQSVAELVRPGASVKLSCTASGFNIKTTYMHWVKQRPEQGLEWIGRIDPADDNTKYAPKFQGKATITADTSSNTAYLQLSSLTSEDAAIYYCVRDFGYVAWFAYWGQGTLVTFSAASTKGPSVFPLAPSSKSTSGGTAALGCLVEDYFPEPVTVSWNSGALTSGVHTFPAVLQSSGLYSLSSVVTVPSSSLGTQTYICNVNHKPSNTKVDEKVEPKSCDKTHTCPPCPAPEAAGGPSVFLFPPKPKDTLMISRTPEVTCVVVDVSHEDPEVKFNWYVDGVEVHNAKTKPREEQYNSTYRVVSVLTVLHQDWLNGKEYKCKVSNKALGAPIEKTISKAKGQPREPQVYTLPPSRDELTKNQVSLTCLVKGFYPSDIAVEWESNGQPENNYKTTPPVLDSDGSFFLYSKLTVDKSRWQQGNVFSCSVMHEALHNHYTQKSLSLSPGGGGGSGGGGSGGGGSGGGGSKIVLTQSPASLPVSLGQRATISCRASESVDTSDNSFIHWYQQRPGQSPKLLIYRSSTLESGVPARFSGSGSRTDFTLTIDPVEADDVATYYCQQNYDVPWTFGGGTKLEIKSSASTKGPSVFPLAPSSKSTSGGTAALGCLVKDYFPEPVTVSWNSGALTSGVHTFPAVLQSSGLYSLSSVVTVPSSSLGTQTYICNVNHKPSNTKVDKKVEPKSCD
light 1: NIVMTPTPKFLPVSSGDRVTMTCRASQSVDNYVAWYQQKPGQSPKLLIYYASNRYIGVPDRFTGSGSGTDFTFTISSVQVEDLAVYFCQQHYSSPYTFGSGTKLEIKRTVAAPSVFIFPPSDRKLKSGTASVVCLLNNFYPREAKVQWKVDNALQSGNSQESVTEQDSKDSTYSLSSTLTLSKADYEKHKVYACEVTHQG
light 2: B2 light 2
notes: Tetravalent 2+2 CrossMAb VH-VL with charged substitutions in the CH1/CL interfaces; also called PD1TIM3-0358 (2 + 2)

- FAP signal [RU max] [7]: 41.9 RU
B4: DR5TAA-0077 (bispecific antibody, human IgG1, kappa)
light 1: not shown
heavy: not shown
light 2: B5 light 1 with S31R, Y50I, S54T, T93Q, T94V, H95I, I97P, R124E, K125Q
notes: Tetravalent 2+2: DR5 core antibody (VH/VL crossover on DR5) with two FAP Fabs fused to the HC C-termini; wild type CH1/CL interface; also called DR5TAA-0077 (control)

- FAP signal [RU max] [7]: 7.2 RU
B6: DR5TAA-0081 (bispecific antibody, human IgG1, kappa, L234A L235A)
light 1: B5 light 2 with E133Q
heavy: not shown
light 2: B5 light 1 with R124E, K125Q
notes: Tetravalent 2+2: DR5 core antibody with two VH/VL-crossed FAP Fabs fused to the HC C-termini; wild type CH1/CL interface; the set of three chains is the same; also called DR5TAA-0081 (control)

- FAP signal [RU max] [7]: 38.4 RU
B7: DR5TAA-0078 (bispecific antibody)
light 1: EIVLTQSPGTLSLSPGERATLSCRASQSVSSSYLAWYQQKPGQAPRLLIYGASSRATGIPDRFSGSGSGTDFTLTISRLEPEDFAVYYCQQGTTHPITFGQGTKVEIKSSASTKGPSVFPLAPSSKSTSGGTAALGCLVKDYFPEPVTVSWNSGALTSGVHTFPAVLQSSGLYSLSSVVTVPSSSLGTQTYICNVNHKPSNTKVDKKVEPKSCD
heavy: not shown
light 2: B5 light 1 with S31R, Y50I, S54T, T93Q, T94V, H95I, I97P, R124E, K125Q
notes: Tetravalent 2+2: DR5 core antibody with CH1-CL crossover on DR5 (instead of VH/VL), two FAP Fabs fused to the HC C-termini; wild type CH1/CL interface; also called DR5TAA-0078 (control)
